Measured values: patent publication US20240360203A1
Where two headings read alike, the source gives them in different places.

Columns and labels:
Experiment in all cases: cell-based or functional assay
[1] = target: SARS-CoV-2 BA.2 Spike on pseudovirus (SARS-CoV-2) (UniProt P0DTC2)
[2] = target: SARS-CoV-2 BA.2.12.1 Spike on pseudovirus (SARS-CoV-2) (UniProt P0DTC2)
[3] = target: SARS-CoV-2 Delta Spike on pseudovirus (SARS-CoV-2) (UniProt P0DTC2)
[4] = target: SARS-CoV-2 BA.4/5 Spike on pseudovirus (SARS-CoV-2) (UniProt P0DTC2)
[5] = target: SARS-CoV-2 BA.1 Spike on pseudovirus (SARS-CoV-2) (UniProt P0DTC2)
[6] = target: SARS-CoV-2 BA.2 Spike on pseudovirus (SARS-CoV-2) (UniProt P0DTC2); remark: listed apart in the source
[7] = target: SARS-CoV-2 BA.2.12.1 Spike on pseudovirus (SARS-CoV-2) (UniProt P0DTC2); remark: listed apart in the source
[8] = target: SARS-CoV-2 Delta Spike on pseudovirus (SARS-CoV-2) (UniProt P0DTC2); remark: listed apart in the source
[9] = target: SARS-CoV-2 BA.4/5 Spike on pseudovirus (SARS-CoV-2) (UniProt P0DTC2); remark: listed apart in the source
[10] = target: SARS-CoV-2 BA.1 Spike on pseudovirus (SARS-CoV-2) (UniProt P0DTC2); remark: listed apart in the source
[11] = target: SARS-CoV-2 Delta (B.1.617.2) spike protein (SARS-CoV-2)
[12] = target: SARS-CoV-2 BA.4/5 Spike on pseudovirus (SARS-CoV-2) (UniProt P0DTC2); remark: listed apart in the source
[13] = target: SARS-CoV-2 BA.2.3.20 spike protein (SARS-CoV-2)
[14] = target: SARS-CoV-2 BF.7 spike protein (SARS-CoV-2)
[15] = target: SARS-CoV-2 BA.4/5 spike protein (SARS-CoV-2)
[16] = target: SARS-CoV-2 BA.2.12.1 spike protein (SARS-CoV-2)
[17] = target: SARS-CoV-2 CH.1.1 spike protein (SARS-CoV-2)
[18] = target: SARS-CoV-2 BA.2.75.2 spike protein (SARS-CoV-2)
[19] = target: SARS-CoV-2 BA.4.6 spike protein (SARS-CoV-2)
[20] = target: SARS-CoV-2 BQ.1 spike protein (SARS-CoV-2)
[21] = target: SARS-CoV-2 XBB.1.5 spike protein (SARS-CoV-2)
[22] = target: SARS-CoV-2 XBB.1 spike protein (SARS-CoV-2)
[23] = target: SARS-CoV-2 BA.1.1 spike protein (SARS-CoV-2)
[24] = target: SARS-CoV-2 Delta (B.1.617.2) spike protein (SARS-CoV-2); remark: listed apart in the source
[25] = target: SARS-CoV-2 BA.1 spike protein (SARS-CoV-2)
[26] = target: SARS-CoV-2 BQ.1.1 spike protein (SARS-CoV-2)
[27] = target: SARS-CoV-2 BF.7.14 spike protein (SARS-CoV-2)
[28] = target: SARS-CoV-2 BA.2 spike protein (SARS-CoV-2)
[29] = target: SARS-CoV-2 BA.2.75 spike protein (SARS-CoV-2)
[30] = target: SARS-CoV-2 BN.1 spike protein (SARS-CoV-2)
[31] = target: SARS-CoV-2 Delta (B.1.617.2) spike protein (SARS-CoV-2); remark: listed apart in the source
[32] = target: SARS-CoV-2 XBB.1.5 spike protein (SARS-CoV-2); remark: listed apart in the source
[33] = target: SARS-CoV-2 Delta (B.1.617.2) spike protein (SARS-CoV-2); remark: listed apart in the source
[34] = target: SARS-CoV-2 BQ.1.1 spike protein (SARS-CoV-2); remark: listed apart in the source
[35] = target: SARS-CoV-2 Delta (B.1.617.2) spike protein (SARS-CoV-2); remark: listed apart in the source
[36] = target: SARS-CoV-2 XBB.1.5 spike protein (SARS-CoV-2); remark: listed apart in the source
[37] = target: SARS-CoV-2 BQ.1.1 spike protein (SARS-CoV-2); remark: listed apart in the source
[38] = target: SARS-CoV-2 XBB.1.5 spike protein (SARS-CoV-2); remark: listed apart in the source
[39] = target: SARS-CoV-2 BQ.1.1 spike protein (SARS-CoV-2); remark: listed apart in the source
[40] = target: SARS-CoV-2 XBB.1.5 spike protein (SARS-CoV-2); remark: listed apart in the source
[41] = target: SARS-CoV-2 BQ.1.1 spike protein (SARS-CoV-2); remark: listed apart in the source

Substance: AZD1061 (antibody)
- IC50, pseudovirus neutralization [1]: 5.8 ng/mL
- IC50, pseudovirus neutralization [2]: 5.1 ng/mL
- IC50, pseudovirus neutralization [3]: 5.9 ng/mL
- IC50, pseudovirus neutralization [4]: 41.2 ng/mL
- IC50, pseudovirus neutralization [5]: 1220 ng/mL
- % neutralization at 4.5 µg/ml, pseudovirus [6]: 99.7%
- % neutralization at 4.5 µg/ml, pseudovirus [7]: 99.8%
- % neutralization at 4.5 µg/ml, pseudovirus [8]: 100%
- % neutralization at 4.5 µg/ml, pseudovirus [9]: 96.7%
- % neutralization at 4.5 µg/ml, pseudovirus [10]: 83.9%

Substance: AZD8895 (antibody)
- IC50, pseudovirus neutralization [1]: 608 ng/mL
- IC50, pseudovirus neutralization [2]: 415 ng/mL
- IC50, pseudovirus neutralization [3]: 0.5 ng/mL
- IC50, pseudovirus neutralization [5]: 1160 ng/mL
- % neutralization at 4.5 µg/ml, pseudovirus [6]: 93.9%
- % neutralization at 4.5 µg/ml, pseudovirus [7]: 94.2%
- % neutralization at 4.5 µg/ml, pseudovirus [8]: 102%
- % neutralization at 4.5 µg/ml, pseudovirus [9]: 25.8%
- % neutralization at 4.5 µg/ml, pseudovirus [10]: 96.5%

Substance: Bebtelovimab (antibody)
- pseudovirus neutralization EC90, Vero E6 (bebtelovimab + isotype) [11]: 12 ng/mL
- IC50, pseudovirus neutralization [12]: 0.3 ng/mL
- pseudovirus neutralization EC50 [13]: 12 ng/mL
- pseudovirus neutralization EC80 [13]: 360 ng/mL
- pseudovirus neutralization EC90 [13]: 2600 ng/mL
- pseudovirus neutralization Emax (% neutralization) [13]: 97.9
- pseudovirus neutralization EC50 [14]: 0.11 ng/mL
- pseudovirus neutralization EC80 [14]: 1.7 ng/mL
- pseudovirus neutralization EC90 [14]: 8.5 ng/mL
- pseudovirus neutralization Emax (% neutralization) [14]: 99.8
- pseudovirus neutralization EC50 [15]: 0.073 ng/mL
- pseudovirus neutralization EC80 [15]: 1.2 ng/mL
- pseudovirus neutralization EC90 [15]: 6.4 ng/mL
- pseudovirus neutralization Emax (% neutralization) [15]: 99.8
- pseudovirus neutralization EC50 [16]: 0.2 ng/mL
- pseudovirus neutralization EC80 [16]: 1.2 ng/mL
- pseudovirus neutralization EC90 [16]: 3.6 ng/mL
- pseudovirus neutralization Emax (% neutralization) [16]: 99.9
- pseudovirus neutralization Emax (% neutralization) [17]: 5.32
- pseudovirus neutralization EC50 [18]: 0.46 ng/mL
- pseudovirus neutralization EC80 [18]: 6.3 ng/mL
- pseudovirus neutralization EC90 [18]: 29 ng/mL
- pseudovirus neutralization Emax (% neutralization) [18]: 99.5
- pseudovirus neutralization EC50 [19]: 0.2 ng/mL
- pseudovirus neutralization EC80 [19]: 2.5 ng/mL
- pseudovirus neutralization EC90 [19]: 11 ng/mL
- pseudovirus neutralization Emax (% neutralization) [19]: 99.6
- pseudovirus neutralization Emax (% neutralization) [20]: 72.2
- pseudovirus neutralization Emax (% neutralization) [21]: 2.01
- pseudovirus neutralization Emax, TMPRSS2-Vero E6 (bebtelovimab + isotype) (% neutralization) [21]: 2.93
- pseudovirus neutralization Emax, Vero E6 (bebtelovimab + isotype) (% neutralization) [21]: 4.21
- pseudovirus neutralization Emax (% neutralization) [22]: 10.8
- pseudovirus neutralization EC50 [23]: 0.12 ng/mL
- pseudovirus neutralization EC80 [23]: 1.3 ng/mL
- pseudovirus neutralization EC90 [23]: 5.6 ng/mL
- pseudovirus neutralization Emax (% neutralization) [23]: 99.9
- pseudovirus neutralization EC50 [24]: 3.8 ng/mL
- pseudovirus neutralization EC50, TMPRSS2-Vero E6 (bebtelovimab + isotype) [24]: 1.6 ng/mL
- pseudovirus neutralization EC50, Vero E6 (bebtelovimab + isotype) [24]: 0.63 ng/mL
- pseudovirus neutralization EC80 [24]: 23 ng/mL
- pseudovirus neutralization EC80, TMPRSS2-Vero E6 (bebtelovimab + isotype) [24]: 13 ng/mL
- pseudovirus neutralization EC80, Vero E6 (bebtelovimab + isotype) [24]: 4.2 ng/mL
- pseudovirus neutralization EC90 [24]: 66 ng/mL
- pseudovirus neutralization EC90, TMPRSS2-Vero E6 (bebtelovimab + isotype) [24]: 43 ng/mL
- pseudovirus neutralization EC90, Vero E6 (bebtelovimab + isotype) [24]: 13 ng/mL
- pseudovirus neutralization Emax (% neutralization) [24]: 99.9
- pseudovirus neutralization Emax, TMPRSS2-Vero E6 (bebtelovimab + isotype) (% neutralization) [24]: 99.7
- pseudovirus neutralization Emax, Vero E6 (bebtelovimab + isotype) (% neutralization) [24]: 99.7
- pseudovirus neutralization EC50 [25]: 0.17 ng/mL
- pseudovirus neutralization EC80 [25]: 1.8 ng/mL
- pseudovirus neutralization EC90 [25]: 7.2 ng/mL
- pseudovirus neutralization Emax (% neutralization) [25]: 99.8
- pseudovirus neutralization Emax (% neutralization) [26]: 53
- pseudovirus neutralization Emax, TMPRSS2-Vero E6 (bebtelovimab + isotype) (% neutralization) [26]: 40.5
- pseudovirus neutralization Emax, Vero E6 (bebtelovimab + isotype) (% neutralization) [26]: 59.1
- pseudovirus neutralization EC50 [27]: 0.22 ng/mL
- pseudovirus neutralization EC80 [27]: 1.4 ng/mL
- pseudovirus neutralization EC90 [27]: 4.1 ng/mL
- pseudovirus neutralization Emax (% neutralization) [27]: 99.8
- pseudovirus neutralization EC50 [28]: 0.2 ng/mL
- pseudovirus neutralization EC80 [28]: 1.4 ng/mL
- pseudovirus neutralization EC90 [28]: 4.4 ng/mL
- pseudovirus neutralization Emax (% neutralization) [28]: 99.9
- pseudovirus neutralization EC50 [29]: 0.65 ng/mL
- pseudovirus neutralization EC80 [29]: 8.2 ng/mL
- pseudovirus neutralization EC90 [29]: 36 ng/mL
- pseudovirus neutralization Emax (% neutralization) [29]: 99.5
- pseudovirus neutralization EC50 [30]: 0.467 ng/mL
- pseudovirus neutralization EC80 [30]: 5.3 ng/mL
- pseudovirus neutralization EC90 [30]: 22 ng/mL
- pseudovirus neutralization Emax (% neutralization) [30]: 99.4
- pseudovirus neutralization EC50, Vero E6 (bebtelovimab + isotype) [31]: 0.44 ng/mL
- pseudovirus neutralization Emax, Vero E6 (bebtelovimab + isotype) (% neutralization) [32]: 0.55
- pseudovirus neutralization Emax, Vero E6 (bebtelovimab + isotype) (% neutralization) [33]: 99.7
- pseudovirus neutralization Emax, Vero E6 (bebtelovimab + isotype) (% neutralization) [34]: 55.6
- pseudovirus neutralization EC80, Vero E6 (bebtelovimab + isotype) [35]: 3.5 ng/mL

Substance: Sotrovimab VH/VL (human IgG1 molecule expressing the same variable regions of Sotrovimab) (antibody)
- IC50, pseudovirus neutralization [1]: 392 ng/mL
- IC50, pseudovirus neutralization [2]: 714 ng/mL
- IC50, pseudovirus neutralization [3]: 12.3 ng/mL
- IC50, pseudovirus neutralization [4]: 666 ng/mL
- IC50, pseudovirus neutralization [5]: 63.3 ng/mL
- IC50, pseudovirus neutralization [12]: 424 ng/mL
- % neutralization at 4.5 µg/ml, pseudovirus [6]: 73.1%
- IC50, pseudovirus neutralization [6]: 704 ng/mL
- % neutralization at 4.5 µg/ml, pseudovirus [7]: 76.9%
- IC50, pseudovirus neutralization [7]: 1200 ng/mL
- % neutralization at 4.5 µg/ml, pseudovirus [8]: 101%
- IC50, pseudovirus neutralization [8]: 65 ng/mL
- % neutralization at 4.5 µg/ml, pseudovirus [9]: 60.5%
- IC50, pseudovirus neutralization [9]: > 4500 ng/mL
- % neutralization at 4.5 µg/ml, pseudovirus [10]: 99.4%

Substance: Sotrovimab VH/VL-hamIgG2a (antibody)
- pseudovirus neutralization EC50, Vero E6 [28]: 361 ng/mL

Substance: Sotrovimab VH/VL-huIgG1 (antibody)
- pseudovirus neutralization EC50, Vero E6 [28]: 862 ng/mL

Substance: Sotrovimab VH/VL-huIgG1-LS (antibody)
- pseudovirus neutralization EC90, Vero E6 (sotrovimab VH/VL-huIgG1-LS + isotype) [36]: 1500 ng/mL
- pseudovirus neutralization EC90, Vero E6 (sotrovimab VH/VL-huIgG1-LS + isotype) [11]: 110 ng/mL
- pseudovirus neutralization EC90, Vero E6 (sotrovimab VH/VL-huIgG1-LS + isotype) [37]: 9600 ng/mL
- pseudovirus neutralization EC50, Vero E6 [28]: 851 ng/mL
- pseudovirus neutralization EC50, Vero E6 (sotrovimab VH/VL-huIgG1-LS + isotype) [38]: 170 ng/mL
- pseudovirus neutralization EC50, Vero E6 (sotrovimab VH/VL-huIgG1-LS + isotype) [31]: 7.9 ng/mL
- pseudovirus neutralization EC50, Vero E6 (sotrovimab VH/VL-huIgG1-LS + isotype) [39]: 1200 ng/mL
- pseudovirus neutralization Emax, Vero E6 (sotrovimab VH/VL-huIgG1-LS + isotype) (% neutralization) [32]: 93.4
- pseudovirus neutralization Emax, Vero E6 (sotrovimab VH/VL-huIgG1-LS + isotype) (% neutralization) [33]: 96.9
- pseudovirus neutralization Emax, Vero E6 (sotrovimab VH/VL-huIgG1-LS + isotype) (% neutralization) [34]: 71.9
- pseudovirus neutralization EC80, Vero E6 (sotrovimab VH/VL-huIgG1-LS + isotype) [40]: 680 ng/mL
- pseudovirus neutralization EC80, Vero E6 (sotrovimab VH/VL-huIgG1-LS + isotype) [35]: 42 ng/mL
- pseudovirus neutralization EC80, Vero E6 (sotrovimab VH/VL-huIgG1-LS + isotype) [41]: 4400 ng/mL
